# According to patent US20140294898A1 (published 2014):
# Positions of bridges follow the written chain, without caps; N, C: chain ends. Non-standard residues stand in square brackets, D forms with d. Phe(4-CF3) = N[C@@H](Cc1ccc(C(F)(F)F)cc1)C(=O)O; Phe(4-tBu) = CC(C)(C)c1ccc(C[C@H](N)C(=O)O)cc1; Bip = N[C@@H](Cc1ccc(-c2ccccc2)cc1)C(=O)O; Phe(4-Br) = N[C@@H](Cc1ccc(Br)cc1)C(=O)O; 1Nal = N[C@@H](Cc1cccc2ccccc12)C(=O)O; 2Nal = N[C@@H](Cc1ccc2ccccc2c1)C(=O)O; 3Pal = N[C@@H](Cc1cccnc1)C(=O)O; NMeNle = CCCC[C@H](NC)C(=O)O; NMeV = CN[C@H](C(=O)O)C(C)C; NMeA = CN[C@@H](C)C(=O)O; Sar = CNCC(=O)O
# Molecular target: T1, hPDL1(19-239)-TVMV-His (human, UniProt Q9NZQ7 19-239)
# T1 construct: The text says amino acids 18-239, the construct name says 19-239; Expressed in HEK293T cells; Used at 10 nM final in the HTRF assay; also called PD-L1-His; PD-L1-TVMV-His
# Assay: HTRF competition, PD-1-Ig binding to PD-L1-His
# Description: All binding studies were performed in an HTRF assay buffer consisting of dPBS supplemented with 0.1% (w/v) bovine serum albumin and 0.05% (v/v) Tween-20. […] PD-L1 fusion proteins from either human, cynomologous macaques, or mouse were used. HTRF detection was achieved using europium crypate-labeled anti-Ig monoclonal antibody (1 nM final) and allophycocyanin (APC) labeled anti-His monoclonal antibody (20 nM final). Antibodies were diluted in HTRF detection buffer and 5 μl was dispensed on top of binding reaction. The reaction was allowed to equilibrate for 30 minutes and signal (665 nm/620 nm ratio) was obtained using an EnVision fluorometer. […]
# HTRF Experiments were performed essentially as outlined supra. Variant macrocyclic peptides were created as outlined herein.
# T1 sequence (Q9NZQ7 other isoform, or with tags, fused parts or gaps limits assumed): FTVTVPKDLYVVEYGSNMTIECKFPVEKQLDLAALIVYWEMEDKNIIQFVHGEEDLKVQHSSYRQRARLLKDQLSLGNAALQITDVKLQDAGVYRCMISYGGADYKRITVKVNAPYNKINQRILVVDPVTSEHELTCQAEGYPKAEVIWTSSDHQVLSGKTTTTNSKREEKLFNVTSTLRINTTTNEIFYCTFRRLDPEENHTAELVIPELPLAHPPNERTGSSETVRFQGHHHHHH
row,Binder,IC50
1,"FANPHLGWSWAXRCG (HELM PEPTIDE1{[O=C(C[*:3])[*:2]].F.[meA].N.P.H.L.[Sar].W.S.W.[meA].[CCCC[C@@H](C(=O)[*:2])N(C)[*:1]].R.C.G.[am]}$PEPTIDE1,PEPTIDE1,1:R3-15:R3$$$V2.0; SMILES CCCC[C@H]1C(=O)N[C@@H](CCCNC(=N)N)C(=O)N[C@H](C(=O)NCC(N)=O)CSCC(=O)N[C@@H](Cc2ccccc2)C(=O)N(C)[C@@H](C)C(=O)N[C@@H](CC(N)=O)C(=O)N2CCC[C@H]2C(=O)N[C@@H](Cc2c[nH]cn2)C(=O)N[C@@H](CC(C)C)C(=O)N(C)CC(=O)N[C@@H](Cc2c[nH]c3ccccc23)C(=O)N[C@@H](CO)C(=O)N[C@@H](Cc2c[nH]c3ccccc23)C(=O)N(C)[C@@H](C)C(=O)N1C) [Compound No. 19]",33 nM
2,{CH2CO}-[Bip][NMeA]NPHL[Sar]WSW[NMeNle][NMeNle]RCG-NH2 (thioether N-14; SMILES CCCC[C@H]1C(=O)N(C)[C@@H](CCCC)C(=O)N[C@@H](CCCNC(=N)N)C(=O)N[C@H](C(=O)NCC(N)=O)CSCC(=O)N[C@@H](Cc2ccc(-c3ccccc3)cc2)C(=O)N(C)[C@@H](C)C(=O)N[C@@H](CC(N)=O)C(=O)N2CCC[C@H]2C(=O)N[C@@H](Cc2c[nH]cn2)C(=O)N[C@@H](CC(C)C)C(=O)N(C)CC(=O)N[C@@H](Cc2c[nH]c3ccccc23)C(=O)N[C@@H](CO)C(=O)N[C@@H](Cc2c[nH]c3ccccc23)C(=O)N1C) [Compound No. 28],117 nM
3,{CH2CO}-F[NMeV]NPHL[Sar]WSW[NMeNle][NMeNle]RCG-NH2 (thioether N-14; SMILES CCCC[C@H]1C(=O)N(C)[C@@H](CCCC)C(=O)N[C@@H](CCCNC(=N)N)C(=O)N[C@H](C(=O)NCC(N)=O)CSCC(=O)N[C@@H](Cc2ccccc2)C(=O)N(C)[C@@H](C(C)C)C(=O)N[C@@H](CC(N)=O)C(=O)N2CCC[C@H]2C(=O)N[C@@H](Cc2c[nH]cn2)C(=O)N[C@@H](CC(C)C)C(=O)N(C)CC(=O)N[C@@H](Cc2c[nH]c3ccccc23)C(=O)N[C@@H](CO)C(=O)N[C@@H](Cc2c[nH]c3ccccc23)C(=O)N1C) [Compound No. 41],921 nM
4,{CH2CO}-F[NMeA]GPHL[Sar]WSW[NMeNle][NMeNle]RCG-NH2 (thioether N-14; SMILES CCCC[C@H]1C(=O)N(C)[C@@H](CCCC)C(=O)N[C@@H](CCCNC(=N)N)C(=O)N[C@H](C(=O)NCC(N)=O)CSCC(=O)N[C@@H](Cc2ccccc2)C(=O)N(C)[C@@H](C)C(=O)NCC(=O)N2CCC[C@H]2C(=O)N[C@@H](Cc2c[nH]cn2)C(=O)N[C@@H](CC(C)C)C(=O)N(C)CC(=O)N[C@@H](Cc2c[nH]c3ccccc23)C(=O)N[C@@H](CO)C(=O)N[C@@H](Cc2c[nH]c3ccccc23)C(=O)N1C) [Compound No. 43],554 nM
5,{CH2CO}-[3Pal][NMeA]NPHL[Sar]WSW[NMeNle][NMeNle]RCG-NH2 (thioether N-14; SMILES CCCC[C@H]1C(=O)N(C)[C@@H](CCCC)C(=O)N[C@@H](CCCNC(=N)N)C(=O)N[C@H](C(=O)NCC(N)=O)CSCC(=O)N[C@@H](Cc2cccnc2)C(=O)N(C)[C@@H](C)C(=O)N[C@@H](CC(N)=O)C(=O)N2CCC[C@H]2C(=O)N[C@@H](Cc2c[nH]cn2)C(=O)N[C@@H](CC(C)C)C(=O)N(C)CC(=O)N[C@@H](Cc2c[nH]c3ccccc23)C(=O)N[C@@H](CO)C(=O)N[C@@H](Cc2c[nH]c3ccccc23)C(=O)N1C) [Compound No. 38],46 nM
6,{CH2CO}-[Phe(4-tBu)][NMeA]NPHL[Sar]WSW[NMeNle][NMeNle]RCG-NH2 (thioether N-14; SMILES CCCC[C@H]1C(=O)N(C)[C@@H](CCCC)C(=O)N[C@@H](CCCNC(=N)N)C(=O)N[C@H](C(=O)NCC(N)=O)CSCC(=O)N[C@@H](Cc2ccc(C(C)(C)C)cc2)C(=O)N(C)[C@@H](C)C(=O)N[C@@H](CC(N)=O)C(=O)N2CCC[C@H]2C(=O)N[C@@H](Cc2c[nH]cn2)C(=O)N[C@@H](CC(C)C)C(=O)N(C)CC(=O)N[C@@H](Cc2c[nH]c3ccccc23)C(=O)N[C@@H](CO)C(=O)N[C@@H](Cc2c[nH]c3ccccc23)C(=O)N1C) [Compound No. 37],1270 nM
7,{CH2CO}-[Phe(4-CF3)][NMeA]NPHL[Sar]WSW[NMeNle][NMeNle]RCG-NH2 (thioether N-14; SMILES CCCC[C@H]1C(=O)N(C)[C@@H](CCCC)C(=O)N[C@@H](CCCNC(=N)N)C(=O)N[C@H](C(=O)NCC(N)=O)CSCC(=O)N[C@@H](Cc2ccc(C(F)(F)F)cc2)C(=O)N(C)[C@@H](C)C(=O)N[C@@H](CC(N)=O)C(=O)N2CCC[C@H]2C(=O)N[C@@H](Cc2c[nH]cn2)C(=O)N[C@@H](CC(C)C)C(=O)N(C)CC(=O)N[C@@H](Cc2c[nH]c3ccccc23)C(=O)N[C@@H](CO)C(=O)N[C@@H](Cc2c[nH]c3ccccc23)C(=O)N1C) [Compound No. 35],56 nM

# Now those with a lower IC50, led by results:
row,IC50,Binder
1,22 nM,{CH2CO}-F[NMeA]NPHLGWSW[NMeNle][NMeNle]RCG-NH2 (thioether N-14; SMILES CCCC[C@H]1C(=O)N(C)[C@@H](CCCC)C(=O)N[C@@H](CCCNC(=N)N)C(=O)N[C@H](C(=O)NCC(N)=O)CSCC(=O)N[C@@H](Cc2ccccc2)C(=O)N(C)[C@@H](C)C(=O)N[C@@H](CC(N)=O)C(=O)N2CCC[C@H]2C(=O)N[C@@H](Cc2c[nH]cn2)C(=O)N[C@@H](CC(C)C)C(=O)NCC(=O)N[C@@H](Cc2c[nH]c3ccccc23)C(=O)N[C@@H](CO)C(=O)N[C@@H](Cc2c[nH]c3ccccc23)C(=O)N1C) [Compound No. 12]
2,21 nM,"FANPHLGWSWXARCG (HELM PEPTIDE1{[O=C(C[*:3])[*:2]].F.[meA].N.P.H.L.[Sar].W.S.W.[CCCC[C@@H](C(=O)[*:2])N(C)[*:1]].[meA].R.C.G.[am]}$PEPTIDE1,PEPTIDE1,1:R3-15:R3$$$V2.0; SMILES CCCC[C@H]1C(=O)N(C)[C@@H](C)C(=O)N[C@@H](CCCNC(=N)N)C(=O)N[C@H](C(=O)NCC(N)=O)CSCC(=O)N[C@@H](Cc2ccccc2)C(=O)N(C)[C@@H](C)C(=O)N[C@@H](CC(N)=O)C(=O)N2CCC[C@H]2C(=O)N[C@@H](Cc2c[nH]cn2)C(=O)N[C@@H](CC(C)C)C(=O)N(C)CC(=O)N[C@@H](Cc2c[nH]c3ccccc23)C(=O)N[C@@H](CO)C(=O)N[C@@H](Cc2c[nH]c3ccccc23)C(=O)N1C) [Compound No. 21]"
3,20 nM,{CH2CO}-[1Nal][NMeA]NPHL[Sar]WSW[NMeNle][NMeNle]RCG-NH2 (thioether N-14; SMILES CCCC[C@H]1C(=O)N(C)[C@@H](CCCC)C(=O)N[C@@H](CCCNC(=N)N)C(=O)N[C@H](C(=O)NCC(N)=O)CSCC(=O)N[C@@H](Cc2cccc3ccccc23)C(=O)N(C)[C@@H](C)C(=O)N[C@@H](CC(N)=O)C(=O)N2CCC[C@H]2C(=O)N[C@@H](Cc2c[nH]cn2)C(=O)N[C@@H](CC(C)C)C(=O)N(C)CC(=O)N[C@@H](Cc2c[nH]c3ccccc23)C(=O)N[C@@H](CO)C(=O)N[C@@H](Cc2c[nH]c3ccccc23)C(=O)N1C) [Compound No. 27]
4,15 nM,{CH2CO}-[2Nal][NMeA]NPHL[Sar]WSW[NMeNle][NMeNle]RCG-NH2 (thioether N-14; SMILES CCCC[C@H]1C(=O)N(C)[C@@H](CCCC)C(=O)N[C@@H](CCCNC(=N)N)C(=O)N[C@H](C(=O)NCC(N)=O)CSCC(=O)N[C@@H](Cc2ccc3ccccc3c2)C(=O)N(C)[C@@H](C)C(=O)N[C@@H](CC(N)=O)C(=O)N2CCC[C@H]2C(=O)N[C@@H](Cc2c[nH]cn2)C(=O)N[C@@H](CC(C)C)C(=O)N(C)CC(=O)N[C@@H](Cc2c[nH]c3ccccc23)C(=O)N[C@@H](CO)C(=O)N[C@@H](Cc2c[nH]c3ccccc23)C(=O)N1C) [Compound No. 26]
5,9 nM,{CH2CO}-F[NMeA]NPHL[Sar]WSW[NMeNle][NMeNle]RC-NH2 (thioether N-14; SMILES CCCC[C@H]1C(=O)N(C)[C@@H](CCCC)C(=O)N[C@@H](CCCNC(=N)N)C(=O)N[C@H](C(N)=O)CSCC(=O)N[C@@H](Cc2ccccc2)C(=O)N(C)[C@@H](C)C(=O)N[C@@H](CC(N)=O)C(=O)N2CCC[C@H]2C(=O)N[C@@H](Cc2c[nH]cn2)C(=O)N[C@@H](CC(C)C)C(=O)N(C)CC(=O)N[C@@H](Cc2c[nH]c3ccccc23)C(=O)N[C@@H](CO)C(=O)N[C@@H](Cc2c[nH]c3ccccc23)C(=O)N1C) [Compound No. 24]
6,4 nM,{CH2CO}-[Phe(4-Br)][NMeA]NPHL[Sar]WSW[NMeNle][NMeNle]RCG-NH2 (thioether N-14; SMILES CCCC[C@H]1C(=O)N(C)[C@@H](CCCC)C(=O)N[C@@H](CCCNC(=N)N)C(=O)N[C@H](C(=O)NCC(N)=O)CSCC(=O)N[C@@H](Cc2ccc(Br)cc2)C(=O)N(C)[C@@H](C)C(=O)N[C@@H](CC(N)=O)C(=O)N2CCC[C@H]2C(=O)N[C@@H](Cc2c[nH]cn2)C(=O)N[C@@H](CC(C)C)C(=O)N(C)CC(=O)N[C@@H](Cc2c[nH]c3ccccc23)C(=O)N[C@@H](CO)C(=O)N[C@@H](Cc2c[nH]c3ccccc23)C(=O)N1C) [Compound No. 34]
